The values that follow come from US20030228608, “Method to enhance homologous recombination” (Promega Corporation, published 2003).

Series [1] deals with T1, RecA (Thermotoga maritima, UniProt P36203 P36203:1-356).
T1 sequence: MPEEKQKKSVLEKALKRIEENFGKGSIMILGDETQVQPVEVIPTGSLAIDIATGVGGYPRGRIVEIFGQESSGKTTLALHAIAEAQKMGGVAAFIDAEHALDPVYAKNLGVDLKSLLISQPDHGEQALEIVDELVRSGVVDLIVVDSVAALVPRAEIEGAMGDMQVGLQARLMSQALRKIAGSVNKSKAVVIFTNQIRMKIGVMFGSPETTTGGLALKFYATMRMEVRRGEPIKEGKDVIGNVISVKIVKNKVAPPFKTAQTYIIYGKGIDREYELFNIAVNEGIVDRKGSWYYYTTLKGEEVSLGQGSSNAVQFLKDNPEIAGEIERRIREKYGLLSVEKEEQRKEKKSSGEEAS
Kind of series: EMSA; nucleoprotein assembly; 75 C, 2 mM Mg acetate, ATPgammaS or dATP/ATPgammaS; more efficient than E. coli RecA. To be noted: tags: untagged; expressed in E. coli; label: 5' fluorescein. The method, then:
(§1) To detect recombinase coating of a substrate (nucleoprotein assembly), a gel shift assay with a labeled ssDNA may be employed. For example, 0.1 μM of a fluorescein-tagged 91-mer oligonucleotide (F-[…] […] GAT; SEQ ID NO: 1) was used as a substrate for coating by RecA. The coating buffer for E. coli RecA was 25 mM Tris acetate, pH 7.85, 15 mM potassium glutamate (K-Glu), 5 mM Mg acetate, and 2.5 mM DTT. The coating buffer for Thermotoga RecA was 25 mM Tris acetate, pH 8.0, 15 mM K-Glu, 2 mM Mg acetate, 2.5 mM DTT and 0.1% Triton. The coating buffer also included ATPyS (3 mM), or dATP and ATPγS at a ratio of 10:1 (3 mM and 0.3 mM, respectively). RecA was then added to the coating buffer containing the substrate at a ratio of 4 μM RecA for 10 μM of base. The E. coli RecA coating reaction was incubated for up to 60 minutes at 42° C. and the Thermotoga RecA coating reaction was incubated for up to 60 minutes at 75° C. (or 65° C.), although other temperatures may be employed. The tagged oligonucleotide was visualized and quantified using a FluorImager-SI and ImageQuant Software.
Background: A gel shift assay detects complexes by their altered migration in electrophoresis.

The target in series [2] is T1, RecA. Kind of series: EMSA; 75 C, 2 mM Mg acetate; slower assembly than 91-mer; more efficient than E. coli RecA. As to conditions: tags: untagged; expressed in E. coli; label: 5' fluorescein. The method, then:
as §1, with “Software. […]” for “Software.”

B1: 91-mer (ssDNA)
DNA: ACAACAACTGGCGGGCAAACAGTCGTTGCTGATTGGCGTTGCCTAATCCAGTCTGGCCCTGCACGCGCCGTCGCAAATTGTCGCGGCGAT
modifications: [1 (5'-fluorescein)]
Take B1: the binding result with RecA [1] was “binds”.

On to GCTGATTGGCGTTGCCTAATCCAGTCTGGCCCTGC (ssDNA, [5'-F label (position 1)]) [35-mer], for which, in the series with RecA [2], the binding result is recorded as “binds”.

B2: 51-mer (ssDNA)
DNA: CAGTCGTTGCTGATTGGCGTTGCCTAATCCAGTCTGGCCCTGCACGCGCCG
modifications: [5'-F label (position 1)]
In the case of B2, the binding result with RecA [2] was “binds”.
